Columns and labels:
[1] = Delivery and clearance of sodium fluorescein from the suprachoroidal space in live rabbits (Example 5); type: in vivo, rabbit; settings: SCS injection
Description: The delivery of a fluorescent molecule (sodium fluorescein) to the suprachoroidal space was evaluated using rabbits according to approved live animal experimental protocols. A one dimensional scan of the eye (through line of sight) was taken within the first five minutes after injection to determine the dispersion of the fluorescent molecule in the eye (FIG. 14). The y-axis indicates the fluorescent intensity (i.e., the concentration) and the x-axis represents the position in the eye from front (160) to back (0). Thus, the results illustrate that within the first 5 minutes after injection, the fluorescein had already flowed through the suprachoroidal space to the back of the eye. with some remaining at the initial insertion site.
Similar scans were taken to evaluate the rate of clearance of fluorescein from the suprachoroidal space over time (FIG. 15). The fluorescent intensity was measured in two regions of the eye (the suprachoroidal space and mid-vitreous region) over time. The results illustrate that the bulk of the material injected remains in the suprachoroidal space without passing into the mid-vitreous region and that the material substantially cleared the suprachoroidal space within 24 hours.

[2] = Phase 1 safety and tolerability of suprachoroidal bevacizumab in patients with CNV secondary to wet AMD (Example 14); type: in vivo, human
Description: (§1) The safety and tolerabilty of a single microneedle injection of bevacizumab into the suprachoroidal space (SCS) using a micronocedle was evaluated. Four adult patients with choroidal neovascularization (CNV), secondary to wet age-related macular degeneration (AMD), were enrolled in a phase 1, single-center, open-label study. Each subject provided informed consent and was screened for eligibility. […] Treated patients remained in the clinic for 4 hours for observation and then retumed multiple times for follow-up during a 2 month period. Major safety examinations included intraocular pressure (IOP), angiograms, biomicroscopy, indirect ophthalmoscopy, fundus photography, optical coherence tomography (OCT), visual acuity (VA) (Table 8), and assessment of pain.

[3] = Visual acuity of patients after suprachoroidal bevacizumab (Example 14); type: in vivo, human
Description: as §1

O=C1OC2(c3ccc(O)cc3Oc3cc(O)ccc32)c2ccccc21 [fluorescein, sodium fluorescein]
time to substantial clearance from the suprachoroidal space ([1]; fluorescent intensity): ≤ 24 h | time for fluorescein to flow through the suprachoroidal space to the back of the eye ([1]; one dimensional fluorescence scan): ≤ 5 min

bevacizumab: humanized monoclonal antibody, angiogenesis inhibitor (Avastin)
effect on IOP, OCT or VA ([2]; 100 μL bevacizumab SCS, any subject): No negative effect | adverse events related to bevacizumab or the method of administration ([2]; 100 μL bevacizumab SCS, ophthalmic examinations): no unexpected or serious adverse events | level of pain recorded for the administration ([2]; 100 μL bevacizumab SCS, topical anesthesia, four patients): moderate | intraretinal fluid (OCT) ([2]; patient number 3, 56 days after injection vs before injection): Decrease | rescue therapy or reinjection ([2]; two months following treatment): No patients required rescue therapy or reinjection | Visual Acuity ([3]; Patient 1, 28 day post dose): 20/40 | Visual Acuity ([3]; Patient 1, 56 day post dose): 20/40 | Visual Acuity ([3]; Patient 1, Pre-does): 20/80 | Visual Acuity ([3]; Patient 1, Screening): 20/40 | Visual Acuity ([3]; Patient 2, 28 day post dose): 20/20 | Visual Acuity ([3]; Patient 2, 56 day post dose): 20/20 | Visual Acuity ([3]; Patient 2, Pre-does): 20/40 | Visual Acuity ([3]; Patient 2, Screening): 20/40 | Visual Acuity ([3]; Patient 3, 28 day post dose): 20/250 | Visual Acuity ([3]; Patient 3, 56 day post dose): 20/250 | Visual Acuity ([3]; Patient 3, Pre-does): 20/320 | Visual Acuity ([3]; Patient 3, Screening): 20/320 | Visual Acuity ([3]; Patient 4, 28 day post dose): 20/400 | Visual Acuity ([3]; Patient 4, 56 day post dose): 20/400 | Visual Acuity ([3]; Patient 4, Pre-does): 20/400 | Visual Acuity ([3]; Patient 4, Screening): 20/400

— patent US20180028516A1, “METHODS AND DEVICES FOR THE TREATMENT OF OCULAR DISEASES IN HUMAN SUBJECTS” (CLEARSIDE BIOMEDICAL, INC., priority 2012, published 2018)
